Measurements reported in patent publication US20020123082A1.

Biological target: human p27, wild type (human) (UniProt P46527)
Test: cell-based or functional assay

Sequence of human p27, wild type (human) (P46527 whole entry): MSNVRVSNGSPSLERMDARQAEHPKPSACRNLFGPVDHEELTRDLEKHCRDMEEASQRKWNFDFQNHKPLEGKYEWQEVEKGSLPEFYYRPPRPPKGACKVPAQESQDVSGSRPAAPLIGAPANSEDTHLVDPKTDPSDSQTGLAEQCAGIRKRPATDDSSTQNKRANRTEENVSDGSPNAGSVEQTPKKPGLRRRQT

With “(ΔF)Skp2, F-box deleted Skp2 mutant lacking residues 113-152 (from UniProt Q13309 1-112; Q13309 141-424)” the p27 half-life, pulse chase analysis in NIH-3T3 cells was 3 h.
